According to publication PMC6044691 (ACS Omega, 2017):

Assays:
AUC = target: the molecule itself; test: AUC
crystal structure = target: the molecule itself; test: crystal structure

B1: N-terminal truncated Z,Z-farnesyl diphosphate synthase (ΔzFPS) (enzyme, Solanum habrochaites, UniProt B8XA40 71-303, looked up)
chain: MLDEALMPKHIALIMDGNRRWAKDKGLDVSEGHKHLFPKLKEICDISSKLGIQVITAFAFSTENWKRAKGEVDFLMQMFEELYDEFSRSGVRVSIIGCKTDLPMTLQKCIALTEETTKGNKGLHLVIALNYGGYYDILQATKSIVNKAMNGLLDVEDINKNLFDQELESKCPNPDLLIRTGGDQRVSNFLLWQLAYTEFYFTKTLFPDFGEEDLKEAIINFQQRHRRFGGHTY
- stoichiometry N (AUC): 2

B2: ΔzFPS-H103Y mutant (enzyme, Solanum habrochaites, UniProt B8XA40 71-303, looked up)
chain: MLDEALMPKHIALIMDGNRRWAKDKGLDVSEGYKHLFPKLKEICDISSKLGIQVITAFAFSTENWKRAKGEVDFLMQMFEELYDEFSRSGVRVSIIGCKTDLPMTLQKCIALTEETTKGNKGLHLVIALNYGGYYDILQATKSIVNKAMNGLLDVEDINKNLFDQELESKCPNPDLLIRTGGDQRVSNFLLWQLAYTEFYFTKTLFPDFGEEDLKEAIINFQQRHRRFGGHTY
- binding result (crystal structure): binds
